Measured values: the supplement of paper PMC10567573
± gives the standard deviation.

Test: protein stability index of a GFP-peptide fusion (GPS, HEK-293T) (PSI 1-6); higher = more stable
Conditions: c terminus: a fixed tail appended
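Also: 24-mer peptide tiles fused after GFP, lentivirally expressed, FACS-sorted into six equal bins by GFP/DsRed ratio, decoded by Illumina sequencing, PSI is the read-weighted mean bin number.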

Sequence	protein stability index (treatment: DMSO)	protein stability index (treatment: MLN4924 1 uM, 8 h)
LYLEEIADRIIEVDMECQTDAFLD [RSPH3]	2.44 ± 0.74	2.59 ± 0.28
LYLIAKRNRKLKCTFSLTHPANRS [SLC22A15]	2.49 ± 0.41	2.41 ± 0.17
LYPSLGAGYRLGPAQPGADSSFPP [TBX6]	3.38 ± 0.039	3.39 ± 0.24
MADADEGFGLAHTPLEPDAKDLPC [TBX5]	5.24 ± 0.27	5.13 ± 0.22
MAGSDTAPFLSQADDPDDGPVPGT [SPNS1]	5.57 ± 0.17	5.34 ± 0.23
MAPVMAHVDPEEPWSPCSARFITD [ADAMTS4]	3.76 ± 0.4	3.85 ± 0.37
MCVAQVLTAHLLPPRQALGSLCSP [YPEL3]	2.8 ± 0.93	2.8 ± 0.35
MDATNAFKKTAYELLDEKLLARGT [FEM1A]	3.8 ± 0.23	3.85 ± 0.25
MDEESELIQPQDQSCWAFLPDLCL [FBXO39]	3.45 ± 0.17	3.34 ± 0.33
MDERLSLLRSPPPPSARHRAHPPQ [KCNA3]	4.55 ± 0.23	4.44 ± 0.19
MDHPSREKDERQRTTKPMAQRSAH [CSNK1G1]	5.34 ± 0.22	5.09 ± 0.57
MDPQNQHGSGSSLVVIQQPSLDSR [SPRY1]	4.69 ± 0.096	4.65 ± 0.13
MEESKAKFENLCKLMKEILDKKVE [HSP90AB1]	3.34 ± 0.28	3.29 ± 0.19
MEKYEKLAKTGEGSYGVVFKCRNK [CDKL4]	3.78 ± 0.19	3.67 ± 0.26
MERPMSQADLELDYNPPRVQLSDE [CBY2]	5.36 ± 0.22	5.22 ± 0.21
MFSDNSHCPDCGQQWFPSLELGHW [TOR1AIP2]	2.33 ± 0.35	2.44 ± 0.34
MGGSGSRLSKELLAEYQDLTFLTK [CIB1]	3.175 ± 0.031	3.27 ± 0.28
MGPYNPDTCPEVGFFDVLGNDRRR [ACBD3]	4.08 ± 0.37	4.02 ± 0.35
MGWKKACDELELHQRFLREGRFWK [ZMYND11]	2.52 ± 0.19	2.99 ± 0.18
MLAEIFCQTGGVEDQEEWHAQVVE [ZBED1]	3.05 ± 0.2	3.49 ± 0.4
MLDMKVNPIQGLASKWDYEKNEWK [COX4I1]	3.75 ± 0.18	3.65 ± 0.21
MLGRLGYLNHVRAASPQDLAGGYT [MNAT1]	2.61 ± 0.14	2.59 ± 0.37
MLSKGLKRKREEEEEKEPLAVDSW [SERTAD1]	4.84 ± 0.25	4.87 ± 0.092

Sequence	protein stability index (treatment: DMSO)	protein stability index (treatment: MLN4924 1 uM, 8 h)
MNEVKESLRSIEQKYKLFQQQQLT [SPACA9]	3.33 ± 0.13	3.2 ± 0.22
MPIPEDLSTTSGGQQSSKSDRVVA [IKZF1]	5.44 ± 0.16	5.39 ± 0.2
MQLPPALCARLAAGPGAAEPLPVE [ZNF511]	3.97 ± 0.18	3.86 ± 0.11
MQVLVTAISPGRFPEALDELPLPP [ANKRD9]	2.17 ± 0.48	2.23 ± 0.19
MRPTLIDLLPTFRHTLQKLTCEFN [FBXO39]	2.35 ± 0.31	2.44 ± 0.54
MRRQEPLPPPPPPSRGGNQLPRPP [WAS]	4.8 ± 0.18	4.89 ± 0.17
MSAQSVEEDSILIIPTPDEEEKIL [ZNF24]	5.08 ± 0.19	5.23 ± 0.1
MSEMAELSELYEESSDLQMDVMPG [EID1]	5.43 ± 0.088	5.25 ± 0.32
MSGSCAVCVDRVLYLFGGHHSRGN [KLHDC2]	2.35 ± 0.55	1.75 ± 0.36
MSYDEISQLRLVCKRMDLVCQRML [FBXO28]	2.43 ± 0.34	2.25 ± 0.36
MTDGILGKAATMEIPIHGNGEARQ [ARFIP2]	4.58 ± 0.16	4.57 ± 0.13
MTEKQQEEAEWESINVLLMMHGLK [CEP70]	2.62 ± 0.27	2.73 ± 0.22
MTEWKHQRITKQLEKWMQKNVEEN [GLT8D2]	3.85 ± 0.21	3.97 ± 0.41
MTGRVCRGCGGTDIELDAARGDAV [BRF1]	3.65 ± 0.12	3.77 ± 0.18
MTSSSAYYYTKVMSELFLHTPSDT [PKD2L1]	2.51 ± 0.28	2.16 ± 0.28
MVLSRPCHPDDQFTTSILRHWCMK [INTS3]	2.21 ± 0.18	2.26 ± 0.24
MVRSVAWAGFMVLLMIPWGSAAKL [CHIT1]	3.13 ± 0.57	2.87 ± 0.2
MYPESTTGSPARLSLRQTGSPGMI [KCNAB2]	3.7 ± 0.51	4.1 ± 0.4
MYSSSCETTRNTTGIEESTDGMIL [LARP4]	4.33 ± 0.24	4.48 ± 0.23
NAILQLVKKYKSMKLEKEEFVTLK [ESRRG]	2.24 ± 0.37	2.29 ± 0.12
NDTDFRVYLLGNPVVWWLNLLSIA [POMT2]	2.89 ± 0.48	3.11 ± 0.47
NFDHFEILRAIGKGSFGKVCIVQK [STK32A]	2.87 ± 0.27	3.02 ± 0.24
